Measured values from the supplement of paper PMC10724198.

Assays:
Saccharomyces cerevisiae [1] = test: protein stability index of tFT-peptide fusion in wild type (PSI (0-1 scale)); higher = more stable (slower turnover); details: genetic background: wild type
Experimental: (§1)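 MPS profiling in S. cerevisiae of two library types built from selected 12-aa C-degron peptides (IN1, IN2, LN1, LN3, VN2, R1-R5, W1-W3, Atg1 and Rpa12 C-termini): saturation mutagenesis libraries and C-terminal +1 capping libraries (13 aa). Each peptide is fused to the C-terminus of a sfGFP-mCherry timer, after a GGGS linker. Cells are FACS-sorted into 8 mCherry/sfGFP bins and sequenced. PSI runs from 0 (unstable) to 1 (stable), measured once in wild type and in the das1Δ or doa10Δ background.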

Saccharomyces cerevisiae [2] = test: protein stability index of tFT-peptide fusion in deletion strain of DOA10 (PSI (0-1 scale)); higher = more stable (slower turnover)
Experimental: as §1

Saccharomyces cerevisiae [3] = test: protein stability index of tFT-peptide fusion in deletion strain of DAS1 (PSI (0-1 scale)); higher = more stable (slower turnover)
Experimental: as §1
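Throughout, for protein stability index of tFT-peptide fusion in deletion strain of DAS1: PSI is a weighted mean of each variant's read distribution over the sorted stability bins, computed only for variants having over 10 reads in total.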
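Throughout, for protein stability index of tFT-peptide fusion in deletion strain of DOA10: PSI per variant is the weighted mean of its sequencing read distribution over the sorted stability bins, counting only variants with over 10 reads summed across bins.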
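Throughout, for protein stability index of tFT-peptide fusion in wild type: PSI derived as read-weighted mean over the 8 sorting bins, only variants exceeding 10 total reads kept, mCherry placed adjacent to the peptide and sfGFP distal.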

Sequence	protein stability index (Saccharomyces cerevisiae [1])	protein stability index (Saccharomyces cerevisiae [2])	protein stability index (Saccharomyces cerevisiae [3])
GLRMCSVGCWFR	0.248	0.676	–
CLVSLPILDFFR	0.638	0.678	–
ASTLPMCPLLLR	0.408	0.668	–
KITLPMCPLLLR	0.253	0.653	–
GLYMCSVGCKFR	0.619	0.654	–
CLVSLPILNFFR	0.637	0.66	–
AITLPMFPLLLR	0.16	0.638	–
RALRVLLPLYFR	0.353	0.669	–
RVTRLDEIYFRI	0.685	0.731	–
RSLRVLLPLYFRG	0.324	0.694	–
CLVSLPILLFFRL	0.0549	0.512	–
RSLRVLLILYFR	0.23	0.38	–
AITLPMCLLLLR	0.116	0.629	–
RVTRLRAIYFRI	0.159	0.314	–
RVTRQDAIYFRI	0.553	0.698	–
RSLRVLLPLYTR	0.547	0.648	–
RLYMCSVGCWFR	0.382	0.644	–
RSLRVLAPLYFR	0.352	0.687	–
RSLRVMLPLYFR	0.217	0.625	–
RSLRVLVPLYFR	0.218	0.657	–
DLVSLPILLFFR	0.109	0.637	–
GLYMCSVQCWFR	0.354	0.416	–
AITLPMCPLLLRA	0.171	0.3	–
RSLRVLLPLHFR	0.517	0.714	–
LKILRQKMGHQN	0.541	–	0.672
AKWRVGLWRGAS	0.392	–	0.692
LVVYLSTVACIN	0.0656	–	0.161
VRGAVGGDRLVG	0.609	–	0.68
PSLKASFWRVVG	0.147	–	0.678
